Consider 12 proteins from patent US11491212.

Several values for one entry are separate records, joined by “and”; a condition that tells them apart may be missing. Equal entries are not always repeated.

This series addresses Factor X (FX), P00742.

Chain of Factor X (FX), P00742 (P00742 whole entry, looked up): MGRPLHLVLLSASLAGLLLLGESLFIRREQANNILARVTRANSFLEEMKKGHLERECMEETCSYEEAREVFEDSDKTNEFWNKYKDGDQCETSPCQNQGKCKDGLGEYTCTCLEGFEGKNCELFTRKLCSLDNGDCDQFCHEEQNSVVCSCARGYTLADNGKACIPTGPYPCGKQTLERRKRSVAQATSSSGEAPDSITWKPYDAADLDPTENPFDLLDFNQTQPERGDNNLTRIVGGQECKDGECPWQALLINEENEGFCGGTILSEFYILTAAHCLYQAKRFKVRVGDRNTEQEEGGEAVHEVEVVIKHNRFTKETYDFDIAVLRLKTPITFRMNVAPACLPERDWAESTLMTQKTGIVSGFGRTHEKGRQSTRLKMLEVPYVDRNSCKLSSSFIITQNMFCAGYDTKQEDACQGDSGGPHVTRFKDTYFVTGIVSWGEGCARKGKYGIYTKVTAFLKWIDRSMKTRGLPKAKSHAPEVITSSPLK

B1: FIXa-R318Y/R403E/E410N (protein)
chain 1: not shown
chain 2: not shown
With B1, the “% of WT kcat/KM” value is 59% and 54%; the KM was found to be 0.0942 µM; the KM for FX activation by FIXa in the Xase complex (FVIIIa/PC-PS/Ca2+), fluorogenic Spectrafluor FXa assay was found to be 0.0883 µM; the kcat was 2.3 s⁻¹. Further, the kcat/KM was 2.7e+07 M⁻¹ s⁻¹.

B2: FIXa-D104N/K106S/R318Y/R338E/E410N (protein)
chain 1: not shown
chain 2: not shown
Consider B2, for which the “% of WT kcat/KM” value was 581% and 564%; the KM was 0.0189 µM; the KM for FX activation by FIXa in the Xase complex (FVIIIa/PC-PS/Ca2+), fluorogenic Spectrafluor FXa assay is 0.0189 µM; the kcat worked out at 4.8 s⁻¹.

B3: FIXa-R318Y/R338E/R403E/E410N (protein)
chain 1: not shown
chain 2: not shown
For B3, the “% of WT kcat/KM” value was 262% and 320%; the KM was determined as 0.0432 µM; the KM for FX activation by FIXa in the Xase complex (FVIIIa/PC-PS/Ca2+), fluorogenic Spectrafluor FXa assay is 0.0455 µM; the kcat was found to be 5.8 s⁻¹. Moreover, the kcat/KM came out at 1.2e+08 M⁻¹ s⁻¹.

B4: FIXa-K228N/R318Y/E410N (protein)
chain 1: not shown
chain 2: not shown
As to B4, the “% of WT kcat/KM” value is 272% and 264%; the KM was found to be 0.042 µM; the KM for FX activation by FIXa in the Xase complex (FVIIIa/PC-PS/Ca2+), fluorogenic Spectrafluor FXa assay was 0.042 µM; the kcat amounted to 5 s⁻¹.

B5: FIXa-D203N/F205T/K228N (protein)
chain 1: not shown
chain 2: not shown
As for B5, the KM stood at 0.0399 µM; the KM for FX activation by FIXa in the Xase complex (FVIIIa/PC-PS/Ca2+), fluorogenic Spectrafluor FXa assay came out at 0.0399 µM; the kcat was determined as 0.6 s⁻¹.

B6: FIXa-D203N/F205T/R338E (protein)
chain 1: not shown
chain 2: not shown
Regarding B6, the KM was found to be 0.0241 µM; the KM for FX activation by FIXa in the Xase complex (FVIIIa/PC-PS/Ca2+), fluorogenic Spectrafluor FXa assay was found to be 0.0241 µM; the kcat came to 2.5 s⁻¹.

B7: FIXa-Y155F/R318Y/R338E/E410N (protein)
chain 1: not shown
chain 2: not shown
In the case of B7, the “% of WT kcat/KM” value is 835% and 810%; the KM came to 0.016 µM; the KM for FX activation by FIXa in the Xase complex (FVIIIa/PC-PS/Ca2+), fluorogenic Spectrafluor FXa assay worked out at 0.016 µM; the kcat is 5.6 s⁻¹.

B8: FIXa-D203N/F205T/R338E/R403E (protein)
chain 1: not shown
chain 2: not shown
Take B8: the KM is 0.0511 µM; the KM for FX activation by FIXa in the Xase complex (FVIIIa/PC-PS/Ca2+), fluorogenic Spectrafluor FXa assay came out at 0.0511 µM; the kcat was 0.9 s⁻¹.

B9: FIXa-D203N/F205T/R318Y (protein)
chain 1: not shown
chain 2: not shown
On to B9, for which the KM was found to be 0.0475 µM; the KM for FX activation by FIXa in the Xase complex (FVIIIa/PC-PS/Ca2+), fluorogenic Spectrafluor FXa assay was 0.0475 µM; the kcat was 0.9 s⁻¹.

B10: FIXa-D203N/F205T/E410N (protein)
chain 1: not shown
chain 2: not shown
On to B10, for which the KM is 0.0455 µM; the KM for FX activation by FIXa in the Xase complex (FVIIIa/PC-PS/Ca2+), fluorogenic Spectrafluor FXa assay worked out at 0.0455 µM; the kcat was 1.7 s⁻¹.

B11: FIXa-Y155F/R318Y/R403E/E410N (protein)
chain 1: not shown
chain 2: not shown
With B11, the “% of WT kcat/KM” value stood at 78%, the KM amounted to 0.111 µM and the kcat was found to be 2.9 s⁻¹.

B12: FIXa-D203N/F205T/R338A (protein)
chain 1: not shown
chain 2: not shown
As to B12, the KM turned out to be 0.0385 µM; the KM for FX activation by FIXa in the Xase complex (FVIIIa/PC-PS/Ca2+), fluorogenic Spectrafluor FXa assay amounted to 0.0385 µM; the kcat was determined as 2.3 s⁻¹.
